This note sets out measurements from article PMC4067516 (Journal of cell science, 2008).

The target in the assay is β1 integrin (human (endogenous in EA.hy926), UniProt P05556 21-798). The assay is described as follows: co-IP.
β1 integrin, sequence (P05556 21-798): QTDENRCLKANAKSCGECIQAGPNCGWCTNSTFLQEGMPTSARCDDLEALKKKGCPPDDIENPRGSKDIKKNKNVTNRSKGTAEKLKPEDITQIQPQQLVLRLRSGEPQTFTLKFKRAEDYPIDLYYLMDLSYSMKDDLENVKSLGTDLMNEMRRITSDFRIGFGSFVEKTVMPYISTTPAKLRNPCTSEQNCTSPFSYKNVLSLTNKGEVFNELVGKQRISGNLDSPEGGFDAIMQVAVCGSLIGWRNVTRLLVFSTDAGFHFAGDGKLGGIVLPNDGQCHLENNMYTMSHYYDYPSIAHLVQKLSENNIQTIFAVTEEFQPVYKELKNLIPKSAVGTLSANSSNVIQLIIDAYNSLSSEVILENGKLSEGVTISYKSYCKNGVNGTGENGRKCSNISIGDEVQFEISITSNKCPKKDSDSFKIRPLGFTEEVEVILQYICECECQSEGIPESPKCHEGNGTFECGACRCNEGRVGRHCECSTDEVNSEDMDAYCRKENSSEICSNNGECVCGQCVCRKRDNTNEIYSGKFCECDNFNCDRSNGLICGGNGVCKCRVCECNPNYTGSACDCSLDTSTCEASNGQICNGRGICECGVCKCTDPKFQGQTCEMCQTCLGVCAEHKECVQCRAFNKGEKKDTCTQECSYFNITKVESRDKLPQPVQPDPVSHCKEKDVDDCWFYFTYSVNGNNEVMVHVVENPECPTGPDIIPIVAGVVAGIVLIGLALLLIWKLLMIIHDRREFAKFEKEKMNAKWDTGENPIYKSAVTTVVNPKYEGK

B1: cannabinoid 1 receptor (receptor, human (endogenous in EA.hy926), UniProt P21554 1-472, looked up)
chain: MKSILDGLADTTFRTITTDLLYVGSNDIQYEDIKGDMASKLGYFPQKFPLTSFRGSPFQEKMTAGDNPQLVPADQVNITEFYNKSLSSFKENEENIQCGENFMDIECFMVLNPSQQLAIAVLSLTLGTFTVLENLLVLCVILHSRSLRCRPSYHFIGSLAVADLLGSVIFVYSFIDFHVFHRKDSRNVFLFKLGGVTASFTASVGSLFLTAIDRYISIHRPLAYKRIVTRPKAVVAFCLMWTIAIVIAVLPLLGWNCEKLQSVCSDIFPHIDETYLMFWIGVTSVLLLFIVYAYMYILWKAHSHAVRMIQRGTQKSIIIHTSEDGKVQVTRPDQARMDIRLAKTLVLILVVLIICWGPLLAIMVYDVFGKMNKLIKTVFAFCSMLCLLNSTVNPIIYALRSKDLRHAFRSMFPSCEGTAQPLDNSMGDSDCLHKHANNAASVHRAAESCIKSTVKIAKVTMSVSTDTSAEAL
For B1, the “normalized CB1R ratio without versus with anandamide (2 mM Ca2+)” value amounted to 1.03 ± 0.04.
